Laboratory results reported in the supplement of paper PMC10567573.
± gives the standard deviation.

Assay: protein stability index of a GFP-peptide fusion (GPS, HEK-293T) (PSI 1-6); higher = more stable
Settings: c terminus: a fixed tail appended
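Also: 24-mer peptide tiles fused after GFP, lentivirally expressed, FACS-sorted into six equal bins by GFP/DsRed ratio, decoded by Illumina sequencing, PSI is the read-weighted mean bin number.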

Row | Sequence | protein stability index (treatment: DMSO) | protein stability index (treatment: MLN4924 1 uM, 8 h)
1 | SFAQATQLGDLHTCLMMDMKACQE [INTS3] | 3.21 ± 0.19 | 3.3 ± 0.43
2 | EKEKEKHKVKAEEEKKAKVAPPAK [BRD3] | 5.38 ± 0.34 | 5.56 ± 0.14
3 | HTPTPFKNALEKYGPLKPLPQTPH [MYBL2] | 3.56 ± 0.28 | 3.91 ± 0.35
4 | LLFSDKNVNSNLITWNRVVLLHGP [TRIP13] | 2.91 ± 0.79 | 2.28 ± 0.53
5 | QGLEQFINKIAGHPLAQNERCLHM [SNX12] | 2.27 ± 0.13 | 2.41 ± 0.21
6 | NYASIIRRDCMWSGFSARERLERA [MYCL] | 2.78 ± 0.3 | 2.77 ± 0.3
7 | AKHMGLEPPPEVWQVLKTHPGDPR [POLD4] | 3.77 ± 0.25 | 3.93 ± 0.48
8 | TLGSSFIPGEHFWLLLLTRGLVGV [SPNS1] | 3.15 ± 1.4 | 3.21 ± 0.84
9 | GRVLRKLPFLAHALYVQAPTVTIE [TRIP13] | 2.32 ± 0.54 | 2.05 ± 0.45
10 | SGTGKKEKEKKNRKGKDKENGSVS [EIF5] | 5.36 ± 0.24 | 5.31 ± 0.21
11 | VSATKAEAEKDGVKVPTTLAEYCI [UBE2R2] | 4.5 ± 0.33 | 4.5 ± 0.28
12 | STKMDCVWSNWKSQAIDLLYWRDI [RTN1] | 2.37 ± 0.34 | 2.27 ± 0.28
13 | SETLEQKPHFESSTVKTETISFGS [EPB41L3] | 5.19 ± 0.073 | 4.95 ± 0.34
14 | SQEEAQGLPSSELDAVENQLKWAS [ZNF24] | 5.32 ± 0.2 | 5.08 ± 0.38
15 | GSGTIDFEEFLVMMVRQMKEDAKG [TNNC2] | 3.25 ± 0.88 | 3.88 ± 0.8
16 | LESLRTAQKTALLQDGRRKVHYLF [DPCD] | 2.19 ± 0.22 | 2.45 ± 0.37
17 | DAVGMLGIEEVTYENCLQALADVE [NLN] | 4.25 ± 0.27 | 3.9 ± 0.34
18 | MCDAFVGTWKLVSSENFDDYMKEV [FABP4] | 2.55 ± 0.44 | 2.42 ± 0.46
19 | GRRAALYVHWPYCEKRCSYCNFNK [RSAD1] | 2.23 ± 0.45 | 2.96 ± 0.55
20 | AHIHLQQLTCFSITCSSTMSYSCC [KRT34] | 3.37 ± 0.64 | 2.95 ± 0.26
21 | LRQFDLAWQYGPCTGITRLQRWCR [POLD4] | 2.26 ± 0.21 | 2.32 ± 0.27
22 | PSDFCGLTHLVKLDLSKNKLQQLP [LRRC59] | 2.17 ± 0.31 | 2.16 ± 0.17

Row | Sequence | protein stability index (treatment: DMSO) | protein stability index (treatment: MLN4924 1 uM, 8 h)
23 | IAVLGIVMLKRIHSLYRRTGASFQ [SCAMP3] | 2.34 ± 0.53 | 2.25 ± 0.18
24 | SKQLTLEQLRREKIDLENTLEQEQ [CCDC6] | 5.43 ± 0.26 | 5.2 ± 0.11
25 | QSFTLRGDHRSPASAQKFSSRSTV [NET1] | 3.92 ± 0.097 | 3.9 ± 0.3
26 | AEKLKAQGEYSRKLEERFMTLAAN [CCDC89] | 3.4 ± 0.41 | 3.49 ± 0.45
27 | CKRNFVAVYDGSSSVEDLKAKFCS [NETO1] | 2.78 ± 0.39 | 2.9 ± 0.36
28 | LRGAKAFRLPGLSRREREPEPPAA [FCHO1] | 4.37 ± 0.28 | 4.14 ± 0.29
29 | LAPDFDRWLDESDAEMELRAKEEE [HACD3] | 5.52 ± 0.12 | 5.45 ± 0.21
30 | SGGVASFICQATGDPRPKIVWNKK [PTPRD] | 3.46 ± 0.49 | 3.58 ± 0.11
31 | KKTHETLSHAGQKATAAFSNVGTA [TPD52L1] | 4.44 ± 0.28 | 4.34 ± 0.21
32 | ERMWAAIQSWDINSRRNINYRSFE [ZER1] | 2.28 ± 0.35 | 2.26 ± 0.25
33 | PPPPHPYNPHPGFPELGYSYGGGS [DVL3] | 3.4 ± 0.32 | 3.6 ± 0.32
34 | CGFGGGAGSVFGGGFGGGVGGGFG [KRT15] | 2.27 ± 0.49 | 2.77 ± 0.23
35 | AVHSGTPVTNNLLEKCKTLVSQSN [SPACA9] | 3.76 ± 0.42 | 3.78 ± 0.39
36 | EEELQEIASEPTNKHLFYAEDFST [MATN2] | 5.26 ± 0.41 | 5.21 ± 0.32
37 | RMGDADYLAAWHRLVLPIAYEFNP [HDAC6] | 2.27 ± 0.56 | 2.3 ± 0.44
38 | YRRHVLGIVLQGPALCFAAAIFSL [TMEM175] | 2.93 ± 0.18 | 2.85 ± 0.39
39 | SGYDGTFLFQKPGDKYEHHSYMGM [POMT2] | 2.68 ± 0.23 | 2.5 ± 0.5
40 | IEITFSYWDGSGHRRTVKMRKGNT [FAM50A] | 2.27 ± 0.25 | 2.19 ± 0.18
41 | HYSLLTSQPLDREATSHYIIELLA [PCDHGC5] | 2.36 ± 0.13 | 2.63 ± 0.32
42 | ARRKLKGAILTTMLATRNFSGGKS [CAMK2A] | 3.21 ± 0.37 | 3.34 ± 0.47
43 | PTQLRALNLTEGFAVLHWKPPQNP [TNXB] | 2.8 ± 0.66 | 3.04 ± 0.63
44 | MANIHQENEEMEQPMQNGEEDRPL [BEX3] | 5.46 ± 0.055 | 5.71 ± 0.087

Row | Sequence | protein stability index (treatment: DMSO) | protein stability index (treatment: MLN4924 1 uM, 8 h)
45 | VCDSCHEAITDEERAPTATFHDSK [WDFY2] | 5.02 ± 0.21 | 5.16 ± 0.13
46 | TVILIESTNEITYGLPIMVTLMVA [CLCN6] | 3.47 ± 0.47 | 3.32 ± 0.29
47 | DALRNLKCGSGARGGDGEVASAPL [TRADD] | 4.15 ± 0.38 | 4.05 ± 0.3
48 | SGFWGVARHFNYVGDLMGSLAYCL [DHCR7] | 2.11 ± 0.48 | 2.07 ± 0.11
49 | SMDIARGLMVTCGTDRIVKIWDMT [WDFY1] | 2.25 ± 0.43 | 1.92 ± 0.33
50 | RRRVPVRNLGKVVHYAKVQLRFQH [PLEKHN1] | 2.35 ± 0.39 | 2.29 ± 0.25
51 | VRVNVLLSRYLIEPCGPGKSKLTY [DLC1] | 3.25 ± 0.83 | 2.68 ± 0.38
52 | KEPAEFNGDGAFLHDNHEQMPTEI [ZNF649] | 5.11 ± 0.25 | 5.16 ± 0.26
53 | DNDPSCVHPIIKRRQCRPEIRMWQ [PHTF1] | 2.54 ± 0.25 | 2.5 ± 0.41
54 | FDGRHSQTLKAMVQAWPFTCLPLG [PRAME] | 2.38 ± 0.48 | 2.24 ± 0.36
55 | EDMEASDYELEDETRPAKRITITE [WEE1] | 5.42 ± 0.25 | 5.36 ± 0.17
56 | LFGDAFAASPGEAPAASEGAAAPA [SNAP91] | 5.07 ± 0.3 | 5.15 ± 0.15
57 | QFLNDQISVQNYKQVCKIAALHGL [KLHL14] | 2.14 ± 0.28 | 2.17 ± 0.16
58 | IKQLRSGGTPIRGALQIEQSEESD [PTPRD] | 4.98 ± 0.36 | 5.15 ± 0.21
59 | MTEMSFLSSEVLVGDLMSPFDQSG [ATF4] | 3.37 ± 0.1 | 3.24 ± 0.37
60 | SARMSAGLPGPEAARSGDAAANKL [PLEKHN1] | 5.22 ± 0.085 | 4.92 ± 0.18
61 | LVQDQDLEAIRKQDLVELYLTNCE [ZER1] | 3.61 ± 0.4 | 3.85 ± 0.38
62 | LAQRTQQDSTRTVGERLQDTHSWK [TEKT4] | 4.42 ± 0.6 | 4.64 ± 0.21
63 | ARMGFNASSMLRKSQLGFLNVTNY [DCAF4] | 2.26 ± 0.13 | 2.24 ± 0.14
64 | LFDMCGISEAQLKDRETSKVIYDF [WASL] | 2.58 ± 0.16 | 2.7 ± 0.3
65 | SKIPHILKEMYDADLLEEEVIISW [EIF5] | 2.19 ± 0.38 | 2.4 ± 0.24
